What was measured:
[1] = target: T1, hybrid insulin peptide 6.3HIP: insulin B-chain B13-19 joined to ProSAAS 219-225 peptide on I-Ag7 (mouse); assay: cytokine release
T1 peptide: EALYLVCSVDQDLG

[2] = target: T2, 6.3HIP 2-14 (N-terminal truncation of the 6.3HIP) peptide on I-Ag7 (mouse); assay: cytokine release
T2 peptide: ALYLVCSVDQDLG

[3] = target: T3, 6.3HIP -1-14 (6.3HIP with a valine added at the N-terminus); RESTORED: the article prints …, which lacks the … (mouse); assay: cytokine release
T3 peptide: VEALYLVCSVDQDLG

[4] = target: T4, 6.3HIP 10D>R (mutant of B13-19/ProSAAS 219-225) peptide on I-Ag7 (mouse); assay: cytokine release
T4 peptide: EALYLVCSVRQDLG

[5] = target: T5, 6.3HIP 12D>R (mutant of B13-19/ProSAAS 219-225) peptide on I-Ag7 (mouse); assay: cytokine release
T5 peptide: EALYLVCSVDQRLG

[6] = target: T6, 6.3HIP 1-11: insulin B-chain B13-19 joined to ProSAAS 219-222 peptide on I-Ag7 (mouse); assay: multimer staining
T6 peptide: EALYLVCSVDQ

- binding result [1]: recognises
- binding result [2]: no recognition
- binding result [3]: recognises
- binding result [4]: no recognition
- binding result [5]: recognises
- binding result [6]: recognises
B1: PD12-4.4 (TCR)
alpha TRAV5D-4 TRAJ53 CDR3: CAASASGGSNYKLTF
beta TRBV5 CDR3: CASSQDTNTGQLYF

Reference: PMC9399855 (2022)
